Data published in the supplement of paper PMC10724198.
± gives the standard deviation of the averaged measurements.

Tests used:
Saccharomyces cerevisiae [1] = assay: protein stability index of tFT-peptide fusion (C-terminal peptide) (PSI (0-1 scale)); higher = more stable (slower turnover)
Description: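 MPS profiling in S. cerevisiae of the tFT-X12 degron library: putative degron peptides plus stable controls, 12 aa, fused to the C-terminus of a sfGFP-mCherry timer. Cells are FACS-sorted into 8 mCherry/sfGFP bins and deep-sequenced. PSI runs from 0 (unstable) to 1 (stable). Backgrounds are wild type, das1Δ and doa10Δ at 30 °C, and wild type, das1Δ, cdc34-1 and cdc53-1 at 37 °C; 2-3 technical replicates each.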

Saccharomyces cerevisiae [2] = assay: as above; details: genetic background: wild type; temperature: 30 C
[3] = genetic background: cdc34-1, temperature: 37 C
[4] = genetic background: cdc53-1, temperature: 37 C
[5] = genetic background: das1 deletion, temperature: 30 C
[6] = genetic background: das1 deletion, temperature: 37 C
[7] = genetic background: doa10 deletion, temperature: 30 C
[8] = genetic background: wild type, temperature: 30 C
[9] = genetic background: wild type, temperature: 37 C
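Further: PSI is a weighted mean of sequencing reads over stability bins, variants kept only with over 10 reads, mCherry proximal and sfGFP distal, peptide attached via GGGS linker.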

Sequence	protein stability index (Saccharomyces cerevisiae [1]; [3])	protein stability index (Saccharomyces cerevisiae [1]; [4])	protein stability index (Saccharomyces cerevisiae [1]; [5])	protein stability index (Saccharomyces cerevisiae [1]; [6])	protein stability index (Saccharomyces cerevisiae [1]; [7])	protein stability index (Saccharomyces cerevisiae [1]; [8])	protein stability index (Saccharomyces cerevisiae [1]; [9])	protein stability index (Saccharomyces cerevisiae [2])
YCCDYFMFVLVV	0.148 ± 0.0029	0.189 ± 0.024	0.206 ± 0.044	0.3012 ± 0.0022	0.184 ± 0.009	0.183 ± 0.032	0.248 ± 0.01	0.255 ± 0.033
LLMPLLLHSLVW	0.354 ± 0.021	0.396 ± 0.012	0.308 ± 0.019	0.455 ± 0.0014	0.308 ± 0.0067	0.335 ± 0.0096	0.434 ± 0.024	0.409 ± 0.005
RGSRLVPRLLRP	0.686 ± 0.028	0.705 ± 0.012	0.648 ± 0.015	0.713 ± 0.0012	0.64 ± 0.02	0.656 ± 0.03	0.677 ± 0.0057	0.71 ± 0.024
RGAVRVAWYPVL	0.699 ± 0.00098	0.737 ± 0.01	0.64 ± 0.011	0.7511 ± 0.0011	0.492 ± 0.019	0.517 ± 0.0095	0.684 ± 0.011	0.508 ± 0.095
CILVSVDVIVFF	0.0529 ± 0.014	0.147 ± 0.043	0.118 ± 0.051	0.207 ± 0.0033	0.103 ± 0.016	0.136 ± 0.026	0.166 ± 0.036	0.212 ± 0.005
LIIVFGFTSILR	0.441 ± 0.02	0.572 ± 0.018	0.36 ± 0.043	0.526 ± 0.018	0.355 ± 0.015	0.328 ± 0.037	0.509 ± 0.048	0.419 ± 0.093
VVSVVVLVNSRG	0.465 ± 0.029	0.501 ± 0.067	0.36 ± 0.023	0.5405 ± 0.0032	0.3414 ± 0.0024	0.373 ± 0.024	0.518 ± 0.0064	0.441 ± 0.017
YLLTAFLSAFNP	0.554 ± 0.054	0.683 ± 0.018	0.543 ± 0.019	0.55 ± 0.0074	0.529 ± 0.041	0.522 ± 0.031	0.537 ± 0.02	0.495 ± 0.11
GFFFYFVLFGLS	0.34 ± 0.061	0.409 ± 0.0011	0.29 ± 0.015	0.47314 ± 0.00013	0.285 ± 0.011	0.268 ± 0.018	0.446 ± 0.016	0.409 ± 0.0059
SGPTIRRRLFVH	0.647 ± 0.021	0.735 ± 0.02	0.621 ± 0.012	0.7286 ± 0.0068	0.148 ± 0.018	0.17 ± 0.043	0.347 ± 0.019	0.333 ± 0.0092
VVFRCSSFFCLV	0.54 ± 0.0062	0.6156 ± 0.006	0.524 ± 0.029	0.622 ± 0.015	0.387 ± 0.033	0.405 ± 0.035	0.536 ± 0.0083	0.4449 ± 0.002
YYLHFRFFIYVF	0.0536 ± 0.019	0.0916 ± 0.0088	0.108 ± 0.035	0.201 ± 0.0051	0.0759 ± 0.019	0.0626 ± 0.013	0.13 ± 0.0084	0.113 ± 0.031
FILLFGFSHWVW	0.449 ± 0.033	0.523 ± 0.023	0.375 ± 0.028	0.5333 ± 0.0017	0.364 ± 0.019	0.37 ± 0.03	0.476 ± 0.036	0.4316 ± 0.0023
PLYFSVFSLLFL	0.522 ± 0.03	0.556 ± 0.048	0.489 ± 0.015	0.631 ± 0.025	0.478 ± 0.026	0.41 ± 0.021	0.539 ± 0.013	0.473 ± 0.012
CPYSNAFALCVF	0.153 ± 0.023	0.237 ± 0.022	0.22 ± 0.026	0.316 ± 0.0064	0.183 ± 0.0056	0.192 ± 0.019	0.253 ± 0.0037	0.272 ± 0.034
